Test [1] has as its target human IgG (human). As to the kind of experiment: human IgG binding to commercial gel support (epoxy-activated crosslinked agarose); elution, A280.
Test [2] addresses human IgG (human). As to the kind of experiment: human IgG binding to commercial gel support (ligand at 6 mg/mL gel on epoxy-activated crosslinked agarose); elution, A280.

Among the data in patent US20160215027A1 are Human IgG binding amount values, retold here.

Turning to “tetramer of four linked Z domains of protein A with the introduced C-terminal cysteine residue (ligand of MabSelect SuRe, GE Healthcare Science) (designed binder)”, in the test with human IgG (human) [1], the Human IgG binding amount worked out at 45.5 mg/mL gel.
Regarding “native sequence protein A with the introduced C-terminal cysteine (ligand of rProtein A-Sepharose FF, GE Healthcare Science) (from UniProt P38507 37-327)”, in the test with human IgG (human) [2], the Human IgG binding amount turned out to be 50.1 mg/mL gel.
